{
  "source": "the Human Domainome abundance scans (Beltran et al. 2025)",
  "parents": {"B1": {"name": "GA-binding protein alpha chain, residues 172 to 250; numbered along this chain, Q06546 (parent)", "chain": "GYRKEQERLGIPYDPIQWSTDQVLHWVVWVMKEFSMTDIDLTTLNISGRELCSLNQEDFFQRVPRGEILWSHLELLRKY"}},
  "note": "± gives the uncertainty stated by the source.",
  "data": [
    {"variants_of": "B1", "assay": "abundance fitness (aPCA) (normalised: wild type 0, dead -1); higher = more abundant; growth selection in yeast, the domain comes from the species named", "settings": "Homo sapiens", "values": [
      {"variant": "GYRKEQFRLGIPYDPIQWSTDQVLHWVVWVMKEFSMTDIDLTTLNISGRELCSLNQEDFFQRVPRGEILWSHLELLRKY", "note": "[E7F]", "abundance fitness": "-0.252 ± 0.063"},
      {"variant": "GYRKEQERLGIPYDPIQWSTDQVLHWVVWHMKEFSMTDIDLTTLNISGRELCSLNQEDFFQRVPRGEILWSHLELLRKY", "note": "[V30H]", "abundance fitness": "-0.134 ± 0.068"},
      {"variant": "GYRKTQERLGIPYDPIQWSTDQVLHWVVWVMKEFSMTDIDLTTLNISGRELCSLNQEDFFQRVPRGEILWSHLELLRKY", "note": "[E5T]", "abundance fitness": "-0.347 ± 0.093"},
      {"variant": "GYRKHQERLGIPYDPIQWSTDQVLHWVVWVMKEFSMTDIDLTTLNISGRELCSLNQEDFFQRVPRGEILWSHLELLRKY", "note": "[E5H]", "abundance fitness": "-0.354 ± 0.13"},
      {"variant": "GYRKEQERLGIPYDPIQWLTDQVLHWVVWVMKEFSMTDIDLTTLNISGRELCSLNQEDFFQRVPRGEILWSHLELLRKY", "note": "[S19L]", "abundance fitness": "-0.864 ± 0.094"},
      {"variant": "GYRKEQERLGIPYDPIQWKTDQVLHWVVWVMKEFSMTDIDLTTLNISGRELCSLNQEDFFQRVPRGEILWSHLELLRKY", "note": "[S19K]", "abundance fitness": "-0.281 ± 0.077"},
      {"variant": "GYRKEQERLGIPYDPIQWTTDQVLHWVVWVMKEFSMTDIDLTTLNISGRELCSLNQEDFFQRVPRGEILWSHLELLRKY", "note": "[S19T]", "abundance fitness": "0.05 ± 0.073"},
      {"variant": "GYRKEQERLGIPYDPIQWSTDQVLHWVVWVMKEFSMTDIDLTTLNISGRELCSLNQQDFFQRVPRGEILWSHLELLRKY", "note": "[E57Q]", "abundance fitness": "-0.046 ± 0.063"},
      {"variant": "GYRKEQERLGIPYDPIQWSTDQVLDWVVWVMKEFSMTDIDLTTLNISGRELCSLNQEDFFQRVPRGEILWSHLELLRKY", "note": "[H25D]", "abundance fitness": "-0.209 ± 0.084"},
      {"variant": "GYRKEQERLLIPYDPIQWSTDQVLHWVVWVMKEFSMTDIDLTTLNISGRELCSLNQEDFFQRVPRGEILWSHLELLRKY", "note": "[G10L]", "abundance fitness": "-0.158 ± 0.03"},
      {"variant": "GYRKEQERLGIPYDPIQWSTDQVLHWVVWVMKEFSMTDIDLTTLNISGRELCSLNQEDFFQRVPRGSILWSHLELLRKY", "note": "[E67S]", "abundance fitness": "-0.057 ± 0.037"},
      {"variant": "GYRKEQERLGIPYDPIQWSTDQVLHWVVWVMKEFSMTDQDLTTLNISGRELCSLNQEDFFQRVPRGEILWSHLELLRKY", "note": "[I39Q]", "abundance fitness": "-0.22 ± 0.06"},
      {"variant": "GYRKEQERLGIPYDPIQWSQDQVLHWVVWVMKEFSMTDIDLTTLNISGRELCSLNQEDFFQRVPRGEILWSHLELLRKY", "note": "[T20Q]", "abundance fitness": "-0.043 ± 0.063"},
      {"variant": "GYRKEQERLGIPYDPIQWSTDQVLHWVVWVMVEFSMTDIDLTTLNISGRELCSLNQEDFFQRVPRGEILWSHLELLRKY", "note": "[K32V]", "abundance fitness": "-0.36 ± 0.044"},
      {"variant": "GYRKEQERLGIPYDPIQWSTDQVLHWVVWVMKWFSMTDIDLTTLNISGRELCSLNQEDFFQRVPRGEILWSHLELLRKY", "note": "[E33W]", "abundance fitness": "-0.566 ± 0.089"},
      {"variant": "GYRKEQERLGIPYDPIQWSTDQVLHWVVWVMKEFSMTDIDLHTLNISGRELCSLNQEDFFQRVPRGEILWSHLELLRKY", "note": "[T42H]", "abundance fitness": "-0.075 ± 0.06"},
      {"variant": "GYRKEQERLGIPYDPIQWSTDQVLHWVVWVMKEFSMTDIDLTTLNISGRELCSLNQEDFFQRVPRGEILWSMLELLRKY", "note": "[H72M]", "abundance fitness": "-0.322 ± 0.055"},
      {"variant": "GYRKEQERLGIPYDPIQWSTDQVLHWVVWVMKEFSMTDIDLTTLNISGRELCSLNQEDFFQRVPRGEILWSDLELLRKY", "note": "[H72D]", "abundance fitness": "-0.214 ± 0.091"},
      {"variant": "GYRKEQERLGIPYDPIQWSTDQVLHWVVWVMKEFSMTDIDLTTLNISCRELCSLNQEDFFQRVPRGEILWSHLELLRKY", "note": "[G48C]", "abundance fitness": "-0.919 ± 0.14"},
      {"variant": "GYWKEQERLGIPYDPIQWSTDQVLHWVVWVMKEFSMTDIDLTTLNISGRELCSLNQEDFFQRVPRGEILWSHLELLRKY", "note": "[R3W]", "abundance fitness": "-0.081 ± 0.047"},
      {"variant": "GYRKEQERLGIPYDPIQWSTDQVLHWVVWVMKEFSMTDIDLTTLNISGRELCSLNQEDFFQRVPRMEILWSHLELLRKY", "note": "[G66M]", "abundance fitness": "-0.967 ± 0.16"},
      {"variant": "GYRKEQERLGIPYDPIQWSTDQVLHWVVWVMKEFGMTDIDLTTLNISGRELCSLNQEDFFQRVPRGEILWSHLELLRKY", "note": "[S35G]", "abundance fitness": "0.018 ± 0.034"},
      {"variant": "GYRKEQERLGIPYDPIQWSTDQVLHWVVWVMKEFSMTDIDLTTLNISGEELCSLNQEDFFQRVPRGEILWSHLELLRKY", "note": "[R49E]", "abundance fitness": "0.041 ± 0.046"},
      {"variant": "GYRKEQERLGIPYDPIQWSTDQVLHWVVWVMKEFSMTDIDLTTLNISGDELCSLNQEDFFQRVPRGEILWSHLELLRKY", "note": "[R49D]", "abundance fitness": "-0.1 ± 0.087"},
      {"variant": "GYRKEQERLGIPYDPIQWSTDQVLHWVVWVMKEFSMTDIDLTTLNISGRELCSLNQEYFFQRVPRGEILWSHLELLRKY", "note": "[D58Y]", "abundance fitness": "-0.165 ± 0.085"},
      {"variant": "GYRKEQERLGDPYDPIQWSTDQVLHWVVWVMKEFSMTDIDLTTLNISGRELCSLNQEDFFQRVPRGEILWSHLELLRKY", "note": "[I11D]", "abundance fitness": "-0.921 ± 0.34"},
      {"variant": "GYRKEQERLGIPYHPIQWSTDQVLHWVVWVMKEFSMTDIDLTTLNISGRELCSLNQEDFFQRVPRGEILWSHLELLRKY", "note": "[D14H]", "abundance fitness": "-0.147 ± 0.078"},
      {"variant": "GYRKECERLGIPYDPIQWSTDQVLHWVVWVMKEFSMTDIDLTTLNISGRELCSLNQEDFFQRVPRGEILWSHLELLRKY", "note": "[Q6C]", "abundance fitness": "-0.118 ± 0.067"},
      {"variant": "GYRKEQERLGIPYDPIQWSTDQVLHWVVWVMKEFSMTDIDLTTLNISGRELCSLNQEDFQQRVPRGEILWSHLELLRKY", "note": "[F60Q]", "abundance fitness": "-0.053 ± 0.071"},
      {"variant": "GYRKEQERLGIPYDPIQWSTDQVLHWVVWVMKEFSMTDIDLTTLNISGRELCSLNQEDFWQRVPRGEILWSHLELLRKY", "note": "[F60W]", "abundance fitness": "-0.211 ± 0.051"},
      {"variant": "GYRKEQERLGIPYDPIQWSTDQVLHWVVWVMKEFSMTDIDLTTLNISGRELCSLNQEDFFQRVPRGETLWSHLELLRKY", "note": "[I68T]", "abundance fitness": "-0.065 ± 0.051"},
      {"variant": "GYRKEQERLGIPYDPIQWSTAQVLHWVVWVMKEFSMTDIDLTTLNISGRELCSLNQEDFFQRVPRGEILWSHLELLRKY", "note": "[D21A]", "abundance fitness": "-0.031 ± 0.044"},
      {"variant": "GYRKEQERLGIPYDPIQWSTDQVLHWVVWVMKEFSMTDIDLTTLNISGRELCSLNQEDFFQMVPRGEILWSHLELLRKY", "note": "[R62M]", "abundance fitness": "0.07 ± 0.06"},
      {"variant": "GYRKEQERLGIPYDPIQWSTDQVLHWVVWVMKEFSMTDIDLTTLCISGRELCSLNQEDFFQRVPRGEILWSHLELLRKY", "note": "[N45C]", "abundance fitness": "-0.063 ± 0.066"},
      {"variant": "GYRKEQERLGIPYDPIRWSTDQVLHWVVWVMKEFSMTDIDLTTLNISGRELCSLNQEDFFQRVPRGEILWSHLELLRKY", "note": "[Q17R]", "abundance fitness": "-0.009 ± 0.036"}
    ]}
  ]
}
